In US20170158753A1 (INTEGRATED BIOTHERAPEUTICS, published 2017):

Legend:
EBOV soluble GP (sGP) = target: T1, EBOV soluble GP (sGP) (Ebola virus (EBOV), UniProt P60170 33-324); assay: ELISA on EBOV soluble GP (sGP), OD650 against nM mAb
T1 sequence: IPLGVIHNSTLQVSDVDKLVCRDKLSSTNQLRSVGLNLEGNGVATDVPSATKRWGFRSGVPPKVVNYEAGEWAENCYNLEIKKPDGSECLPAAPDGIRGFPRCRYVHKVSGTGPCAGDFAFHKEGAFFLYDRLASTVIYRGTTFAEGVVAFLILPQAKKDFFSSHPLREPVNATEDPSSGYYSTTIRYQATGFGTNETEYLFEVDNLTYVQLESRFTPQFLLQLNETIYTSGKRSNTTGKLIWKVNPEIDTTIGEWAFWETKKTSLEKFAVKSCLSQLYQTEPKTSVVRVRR

[1] = target: T2, glycoprotein from Reston ebolavirus (RESTV) (Reston ebolavirus (RESTV), UniProt Q66799 34-651); assay: summary of reactivity by any method (ELISA, Western blot, BIACORE)
T2 sequence: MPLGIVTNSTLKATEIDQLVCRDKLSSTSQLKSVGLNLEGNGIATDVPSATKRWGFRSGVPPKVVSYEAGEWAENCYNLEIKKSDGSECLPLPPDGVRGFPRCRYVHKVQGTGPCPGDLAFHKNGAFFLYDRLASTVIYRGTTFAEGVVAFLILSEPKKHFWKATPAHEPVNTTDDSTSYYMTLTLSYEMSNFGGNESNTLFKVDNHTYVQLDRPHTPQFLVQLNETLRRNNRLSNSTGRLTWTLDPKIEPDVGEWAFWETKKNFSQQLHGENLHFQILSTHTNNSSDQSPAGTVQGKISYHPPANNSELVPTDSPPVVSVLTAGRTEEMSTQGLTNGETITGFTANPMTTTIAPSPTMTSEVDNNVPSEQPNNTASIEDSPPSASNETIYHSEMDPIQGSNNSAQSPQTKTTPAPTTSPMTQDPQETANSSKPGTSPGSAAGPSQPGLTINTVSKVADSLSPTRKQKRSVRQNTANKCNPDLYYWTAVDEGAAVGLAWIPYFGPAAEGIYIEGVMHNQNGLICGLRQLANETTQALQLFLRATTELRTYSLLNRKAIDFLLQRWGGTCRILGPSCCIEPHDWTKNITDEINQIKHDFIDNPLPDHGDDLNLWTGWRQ

[2] = target: T3, glycoprotein from Marburg virus (MARV; Musoke isolate) (Marburg virus (MARV; Musoke isolate), UniProt P35253 19-648); assay: as above
T3 sequence: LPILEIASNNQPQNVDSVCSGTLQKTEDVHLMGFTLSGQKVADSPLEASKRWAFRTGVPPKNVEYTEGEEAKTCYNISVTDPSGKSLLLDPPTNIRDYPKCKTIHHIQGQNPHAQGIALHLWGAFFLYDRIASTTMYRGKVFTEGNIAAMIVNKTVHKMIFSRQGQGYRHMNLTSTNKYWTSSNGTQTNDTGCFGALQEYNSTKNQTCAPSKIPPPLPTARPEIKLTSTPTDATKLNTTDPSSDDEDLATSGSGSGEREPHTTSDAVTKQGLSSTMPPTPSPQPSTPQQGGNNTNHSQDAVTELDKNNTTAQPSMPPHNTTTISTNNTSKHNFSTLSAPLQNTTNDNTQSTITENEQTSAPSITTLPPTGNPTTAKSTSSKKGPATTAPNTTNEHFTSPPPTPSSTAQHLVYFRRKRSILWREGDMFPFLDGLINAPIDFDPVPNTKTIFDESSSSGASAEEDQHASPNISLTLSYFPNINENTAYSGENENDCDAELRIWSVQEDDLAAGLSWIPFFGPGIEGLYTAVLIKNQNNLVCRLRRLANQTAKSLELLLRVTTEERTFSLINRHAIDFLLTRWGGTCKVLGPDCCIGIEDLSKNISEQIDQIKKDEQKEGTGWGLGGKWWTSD

[3] = target: T4, glycoprotein from Sudan ebolavirus (SUDV) (Sudan ebolavirus (SUDV), UniProt Q66814 33-650); assay: as above
T4 sequence: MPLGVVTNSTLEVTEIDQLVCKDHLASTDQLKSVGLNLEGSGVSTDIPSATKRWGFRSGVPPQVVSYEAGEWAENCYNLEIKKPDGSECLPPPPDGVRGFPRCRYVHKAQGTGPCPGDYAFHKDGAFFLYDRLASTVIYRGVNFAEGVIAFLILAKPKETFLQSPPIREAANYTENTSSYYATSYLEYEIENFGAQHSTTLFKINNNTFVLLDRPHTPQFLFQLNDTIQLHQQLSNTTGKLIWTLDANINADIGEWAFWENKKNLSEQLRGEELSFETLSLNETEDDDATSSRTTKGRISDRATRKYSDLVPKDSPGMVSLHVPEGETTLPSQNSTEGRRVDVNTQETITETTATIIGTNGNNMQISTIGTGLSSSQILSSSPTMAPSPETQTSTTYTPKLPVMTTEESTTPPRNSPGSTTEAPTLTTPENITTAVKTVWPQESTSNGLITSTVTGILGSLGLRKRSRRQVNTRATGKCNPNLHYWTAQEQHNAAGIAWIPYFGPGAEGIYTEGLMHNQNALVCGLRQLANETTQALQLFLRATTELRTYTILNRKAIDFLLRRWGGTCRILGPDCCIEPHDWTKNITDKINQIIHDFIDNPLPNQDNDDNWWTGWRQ

Binder	EC50 (EBOV soluble GP (sGP)) [nM]	binding result [1]	binding result [2]	binding result [3]	binding result (EBOV soluble GP (sGP))
m8C4 (antibody, V domains shown) VH: EVQLQESGPELKKPGETVKISCKASGYTFTTYGMSWVKQAPGKGLKWMGRINTYSGVPTYADEFKGRFAFSLENSASTAYLQINNLKNEDTATYFCARGDGGHWFANWGQGTLVTVSA VL: DIQMTQSPSSLSASLGGKVTITCKASQDINKNIAWYQHKPGKGPRLLIWYKSALQPGIPSRFSGSGSGRDYSFSISNLEPEDIATYSCLQYDNLPPTFGGGTKLEIKR	10.3	no binding	no binding		
m17C6 (antibody, V domains shown) VH: EVQLQESGPGLVQPSQSLSITCTVSGFSLTSYGVHWVRQSPGKGLEWLGVIWSGGSTDYNAAFISRLSISKDNSKSQVFFKMNSLQADDTAIYYCARNWFDYDNYYSMDYWGQGTSVTVSS VL: DIQMTQTTSSLSASLGDRVTISCRASQDISNYLNWYQQKPDGTVKLLIYYTSRLHSGVPSRFSGSGSGTDFSLTISNQEPEDIATYYCQQYSNLPWTFGGGTKLEIKR	0.4			binds	
m16G8 (antibody, V domains shown) VH: EVQLQESGPGLVKPGASVKISCKASGYSFTGYYMNWVKQSPEKSLEWIGEINPSTGGTTYNQKFKAKATLTVDKSSSTAYMQLKSLTSEDSAVYYCVRYSHYYGSGSWYFDVWGTGTTVTVSS VL: DIQMTQSPASLSASVGETVTITCRASENIYSNLAWYQQKQGKSPQLLVNAATNLADGVPSRFSGSGSGTQFSLKINSLQPEDFGSYYCQHFYVTPYMFGSGTKLEIKR			no binding	binds	no binding (tested: about 67 nM (last point; axis to 100 nM))
m2E4 (antibody, V domains shown) VH: EVQLQESGPELVKPGASVKISCKASGYSFTGYYMNWVKQSPEKSLEWIGEINPSTGGTTYNQKFKAKATLTVDKSSSTAYMQLKSLTSEDSAVYYCVRYSHYYGSGSWYFDVWGTGTTVTVSS VL: DIQMTQSPASLSASVGETVTITCRASENIYSNLAWYQQKQGKSPQLLVNAATNLADGVPSRFSGSGSGTQFSLKINSLQPEDFGSYYCQHFYVTPYTFGSGTKLEIKR			no binding		
m2D8 (antibody, V domains shown) VH: EVQLQESGGELVRPGTSVKISCKASGYTFTNFWLGWIKERPGHGLEWIGDIYPGGHYTNYNENFKGKATLTADTSSNTAYMQVSSLTSEDSAVYFCFTQYYDMDYWGQGTSVTVSS VL: not shown			binds	binds	
m21B2 (antibody, V domains shown) VH: EVQLQESGAELVRPGASVTLSCKTSGYTFTDYEMHWVKQTPVHGLEWIGAIDPETGGTAYNQKFKGKATLTADKSSSTAYMELSRLTSEDSAVYYCTGNYATDYWGQGTSVTVSS VL: DIVMSQSPSSLAVSAGEKVTMSCKSSQSLFNSRSRKNYLAWYQLKPGQSPKLLIYWASTRESGVPDRFTGSGSGTDFTLTISSVQAEDLAVYYCKQSNYLWTFGGGTKLEIKR			binds		
